{"source": "patent US20020103136", "key": {"[1]": {"tested_on": "Ac-4-trans-L-HypSSChgQS-cyclohexylalaninol-(dAc)-VIN"}, "[2]": {"tested_on": "Ac-AbuSSChgQ-SP-(HCAP)-(dAc)-VIN"}, "[3]": {"tested_on": "Ac-SChgQ-SP-(HCAP)-(dAc)-VIN"}, "[4]": {"tested_on": "Ac-SChgQSS(PIP)-(HCAP)-dAc-VIN"}, "[5]": {"tested_on": "Ac-(4-trans-L-Hyp)SSChgQ-SPheol-(dAc)-VIN"}, "[6]": {"tested_on": "Ac-SChgQSS-gammaAbu-(HCAP)-dAc-VIN"}, "[7]": {"tested_on": "Ac-SSChgQ-SP-(HCAP)-(dAc)-VIN"}, "[8]": {"tested_on": "Ac-AbuSSChgQ-S-(HCAP)-VIN"}, "[9]": {"tested_on": "Ac-SSChgQ-SSP-(HCAP)-dAc-VIN"}, "[10]": {"tested_on": "Ac-SChgQSS-Sar-(HCAP)-dAc-VIN"}, "[11]": {"tested_on": "Ac-4-trans-L-HypSSChgQSP(HCAP)-VIN"}, "[12]": {"tested_on": "N-hydroxyacetyl-AbuSSChgQ-SP-(HCAP)-(dAc)-VIN"}, "[13]": {"tested_on": "Ac-SChgQ-SS(4-trans-L-Hyp)-(HCAP)-dAc-VIN"}, "[14]": {"tested_on": "Ac-4-trans-L-Hyp-SSChgQ-SS-(HCAP)-(dAc)-VIN"}}, "data": [{"substance": "free prostate specific antigen (PSA)", "values": [{"measurement": "Time to 50% Substrate Cleavage by York PSA", "setting": "[1]", "result": 10, "unit": "min"}, {"measurement": "Time to 50% Substrate Cleavage by York PSA", "setting": "[2]", "result": 18, "unit": "min"}, {"measurement": "Time to 50% Substrate Cleavage by York PSA", "setting": "[3]", "result": 13, "unit": "min"}, {"measurement": "Time to 50% Substrate Cleavage by York PSA", "setting": "[4]", "result": 22, "unit": "min"}, {"measurement": "Time to 50% Substrate Cleavage by York PSA", "setting": "[5]", "result": 25, "unit": "min"}, {"measurement": "Time to 50% Substrate Cleavage by York PSA", "setting": "[6]", "result": 12, "unit": "min"}, {"measurement": "Time to 50% Substrate Cleavage by York PSA", "setting": "[7]", "result": 30, "unit": "min"}, {"measurement": "Substrate cleavage by York PSA at 1 hour (printed in the column 'Time to 50% Substrate Cleavage by York PSA (Min)')", "setting": "[8]", "result": 1, "unit": "HOUR = 28%"}, {"measurement": "Time to 50% Substrate Cleavage by York PSA", "setting": "[9]", "result": 8, "unit": "min"}, {"measurement": "Time to 50% Substrate Cleavage by York PSA", "setting": "[10]", "result": 13, "unit": "min"}, {"measurement": "Time to 50% Substrate Cleavage by York PSA", "setting": "[11]", "result": 8, "unit": "min"}, {"measurement": "Time to 50% Substrate Cleavage by York PSA", "setting": "[12]", "result": 11, "unit": "min"}, {"measurement": "Time to 50% Substrate Cleavage by York PSA", "setting": "Ac-SChgQS-Abu-(HCAP)-VIN", "result": 60, "unit": "min"}, {"measurement": "Time to 50% Substrate Cleavage by York PSA", "setting": "Ac-SChgQ-SSP-(HCAP)-VIN", "result": 8, "unit": "min"}, {"measurement": "Time to 50% Substrate Cleavage by York PSA", "setting": "[13]", "result": 7, "unit": "min"}, {"measurement": "Time to 50% Substrate Cleavage by York PSA", "setting": "[14]", "result": 17, "unit": "min"}, {"measurement": "Time to 50% Substrate Cleavage by York PSA", "setting": "Ac-SChgQSS(HCAP)-dAc-VIN", "result": 12, "unit": "min"}]}]}
